Results taken from PMC4690471 (Cell, 2015).

B1: zebrafish RAG1 (271–1031) (domain or fragment, UniProt O13033 271-1031, looked up)
chain: RCQRDHLSTKLIPTEVPADLIRAVTCQVCDHLLSDPVQSPCRHLFCRLCIIRYTHALGPNCPTCNQHLNPSHLIKPAKFFLATLSSLPLLCPSEECSDWVRLDSFREHCLNHYREKESQEEQTPSEQNLDGYLPVNKGGRPRQHLLSLTRRAQKHRLRDLKNQVKTFAEKEEGGDVKSVCLTLFLLALRAGNEHKQADELEAMMQGRGFGLHPAVCLAIRVNTFLSCSQYHKMYRTVKATSGRQIFQPLHTLRNAEKELLPGFHQFEWQPALKNVSTSWDVGIIDGLSGWTVSVDDVPADTISRRFRYDVALVSALKDLEEDIMEGLRERALDDSMCTSGFTVVVKESCDGMGDVSEKHGSGPAVPEKAVRFSFTIMSISIRLEGEDDGITIFQEQKPNSELSCRPLCLMFVDESDHETLTAILGPVVAERKAMMESRLIISVGGLLRSFRFFFRGTGYDEKMVREMEGLEASGSTYICTLCDSTRAEASQNMVLHSITRSHDENLERYEIWRKNPFSESADELRDRVKGVSAKPFMETQPTLDALHCDIGNATEFYKIFQDEIGEVYQKPNPSREERRRWRSTLDKQLRKKMKLKPVMRMNGNYARRLMTREAVEAVCELVPSEERREALLKLMDLYLQMKPVWRSTCPSRDCPDQLCQYSYNSQQFADLLSSMFKYRYDGKITNYLHKTLAHVPEIVERDGSIGAWASEGNESGNKLFRRFRKMNARQSKTFELEDILKHHWLYTSKYLQKFMEAHKNS

How the values were obtained:
cryo-EM structure = molecular target: the molecule itself; test: cryo-EM structure
[1] = molecular target: B1; test: cryo-EM structure

binding result [1] | Binder | stoichiometry N (cryo-EM structure)
– | B1 | 2
binds | full-length zebrafish RAG2 (natural protein, UniProt O13034 1-530, looked up) MSLQPLTAVNCGSLVQPGFSLLDLEGDVYLFGQKGWPKRSCPTGIFGVRIKKGELKLRAISFSNNSSYLPPLRCPAIAHFEAQDGKPECYLIHGGRTPNNELSSSLYMLSVDSRGCNRKVTLRCEEKELVGDVPSARYGHTLSVINSRGKTACVLFGGRSYMPPTERTTQNWNSVGDCPPQVYLIDLEFGCCTAHTLPELTDGQSFHVALARQDCVYFLGGHILSSDCRPSRLIRLHVELLLGSPVLTCTILHEGLTITSAIASPIGYHEYIIFGGYQSETQKRMECTYVGLDDVGVHMESREPPQWTSEISHSRTWFGGSLGKGTALVAIPSEGNPTPPEAYHFYQVSFQKEQDGEATAQGCSQESTDFEDSAPLEDSEELYFGREPHELEYSSDVEGDTYNEEDEEDESQTGYWIKCCLSCQVDPNIWEPYYSTELTRPAMIFCSRGEGGHWVHAQCMELPESLLLQLSQDNSKYFCLDHGGLPKQEMTPPKQMLPVKRVPMKMTHRKAPVSLKMTPAKKTFLRRLFD | –
